In the experiment the target is human TSHR with mutation K209E expressed in CHO cells (human) (UniProt P16473). The experiment in a line: cell-based or functional assay.
Chain of UniProt P16473 (P16473 22-764 K209E/E727D): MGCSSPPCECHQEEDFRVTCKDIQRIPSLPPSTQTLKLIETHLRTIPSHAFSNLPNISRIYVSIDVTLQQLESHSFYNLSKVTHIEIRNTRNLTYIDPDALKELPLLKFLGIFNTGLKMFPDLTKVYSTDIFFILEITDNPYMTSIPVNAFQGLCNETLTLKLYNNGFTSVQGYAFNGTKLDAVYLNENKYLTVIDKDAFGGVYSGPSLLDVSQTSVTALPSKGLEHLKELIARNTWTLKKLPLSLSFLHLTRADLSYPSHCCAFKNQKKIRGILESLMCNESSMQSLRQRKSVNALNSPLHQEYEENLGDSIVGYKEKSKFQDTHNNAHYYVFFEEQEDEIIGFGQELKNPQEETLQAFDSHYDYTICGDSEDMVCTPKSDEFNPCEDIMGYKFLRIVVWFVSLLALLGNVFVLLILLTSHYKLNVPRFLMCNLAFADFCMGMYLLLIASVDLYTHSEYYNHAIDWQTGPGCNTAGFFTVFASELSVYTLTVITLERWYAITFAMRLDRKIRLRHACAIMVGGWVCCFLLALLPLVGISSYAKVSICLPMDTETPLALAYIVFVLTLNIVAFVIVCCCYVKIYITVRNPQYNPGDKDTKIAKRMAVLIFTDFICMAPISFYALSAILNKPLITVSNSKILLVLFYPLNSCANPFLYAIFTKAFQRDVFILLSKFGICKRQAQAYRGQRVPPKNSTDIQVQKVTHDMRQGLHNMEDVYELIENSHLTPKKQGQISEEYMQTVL

B1: M22 Fab (Fab fragment of human monoclonal thyroid stimulating autoantibody hMAb TSHR1) (Fab, from another filing, V domains shown)
VH: QVQLVQSGAEVKKPGESLKISCRGSGYRFTSYWINWVRQLPGKGLEWMGRIDPTDSYTNYSPSFKGHVTVSADKSINTAYLQWSSLKASDTGMYYCARLEPGYSSTWSVNWGQGTLVTVSS
VL: LTVLTQPPSVSGAPRQRVTISCSGNSSNIGNNAVNWYQQLPGKAPKLLIYYDDQLPSGVSDRFSGSRSGTSASLAIRGLQSEDEADYYCTSWDDSLDSQLFGGGTRLTVLG
As to B1, the M22 stimulating activity (cyclic AMP production in TSHR expressing CHO cells) (% of activity with the wild type TSHR) is < 20.

These data come from patent US20100233189A1.
